Data published in paper PMC2734569, “Functional mapping of the fission yeast DNA polymerase δ B-subunit Cdc1 by site-directed and random pentapeptide insertion mutagenesis” (BMC Molecular Biology, 2009).

Columns and labels:
Assay in all cases: two-hybrid; LexA-Cdc1 bait (pBTM116 or pBTM116BN) with Gal4-Pol3 prey and co-expressed c-myc-tagged Cdc27 (pAA-Cdc27) in S. cerevisiae CTY10-5d; ONPG liquid culture beta-galactosidase assay, mean of triplicates, as percent of wild-type Cdc1
Details in all cases: partners not purified
Cdc1-J10 = molecular target: T1, Cdc1-J10 (Schizosaccharomyces pombe, UniProt P87324 1-462, Tyr-ArgGlyThrProTyr-Met)
T1 construct: Cdc1, S. pombe, with a pentapeptide inserted after residue 77; also called J11; E6; source: yeast two-hybrid fusion, in S. cerevisiae CTY10-5d
T1 sequence (looked up): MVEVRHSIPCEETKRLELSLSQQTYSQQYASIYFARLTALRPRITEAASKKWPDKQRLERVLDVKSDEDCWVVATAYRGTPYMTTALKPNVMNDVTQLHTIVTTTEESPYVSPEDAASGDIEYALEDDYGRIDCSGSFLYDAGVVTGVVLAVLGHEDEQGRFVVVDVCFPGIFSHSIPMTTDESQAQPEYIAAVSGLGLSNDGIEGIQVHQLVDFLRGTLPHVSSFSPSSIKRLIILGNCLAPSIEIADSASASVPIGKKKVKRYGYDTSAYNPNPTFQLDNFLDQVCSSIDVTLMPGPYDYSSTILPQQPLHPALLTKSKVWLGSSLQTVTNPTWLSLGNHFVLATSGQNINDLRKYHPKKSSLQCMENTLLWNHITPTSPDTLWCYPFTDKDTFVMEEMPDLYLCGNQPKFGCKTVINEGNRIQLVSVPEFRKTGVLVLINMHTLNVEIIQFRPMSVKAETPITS

Cdc1-E9 = molecular target: T2, Cdc1-E9 (Schizosaccharomyces pombe, UniProt P87324 1-462, Tyr-GlyGlyTyrProTyr-Gly)
T2 construct: Cdc1, S. pombe, with a pentapeptide inserted after residue 124; source: yeast two-hybrid fusion, in S. cerevisiae CTY10-5d
T2 sequence (looked up): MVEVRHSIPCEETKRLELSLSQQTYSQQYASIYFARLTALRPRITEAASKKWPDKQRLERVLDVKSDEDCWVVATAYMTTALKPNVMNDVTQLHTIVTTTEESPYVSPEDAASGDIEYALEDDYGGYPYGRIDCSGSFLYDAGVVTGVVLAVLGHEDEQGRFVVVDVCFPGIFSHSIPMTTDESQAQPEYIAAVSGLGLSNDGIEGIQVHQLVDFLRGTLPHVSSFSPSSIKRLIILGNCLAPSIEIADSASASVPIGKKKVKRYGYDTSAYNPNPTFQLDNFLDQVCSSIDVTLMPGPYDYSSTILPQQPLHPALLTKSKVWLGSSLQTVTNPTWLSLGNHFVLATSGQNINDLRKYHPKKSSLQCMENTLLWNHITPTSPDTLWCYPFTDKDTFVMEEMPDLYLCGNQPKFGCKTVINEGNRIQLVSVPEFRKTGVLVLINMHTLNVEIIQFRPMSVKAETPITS

Cdc1-A1 = molecular target: T3, Cdc1-A1 (Schizosaccharomyces pombe, UniProt P87324 1-462, Pro292Ala)
T3 construct: Cdc1, S. pombe, point mutant; source: yeast two-hybrid fusion, in S. cerevisiae CTY10-5d
T3 sequence (looked up): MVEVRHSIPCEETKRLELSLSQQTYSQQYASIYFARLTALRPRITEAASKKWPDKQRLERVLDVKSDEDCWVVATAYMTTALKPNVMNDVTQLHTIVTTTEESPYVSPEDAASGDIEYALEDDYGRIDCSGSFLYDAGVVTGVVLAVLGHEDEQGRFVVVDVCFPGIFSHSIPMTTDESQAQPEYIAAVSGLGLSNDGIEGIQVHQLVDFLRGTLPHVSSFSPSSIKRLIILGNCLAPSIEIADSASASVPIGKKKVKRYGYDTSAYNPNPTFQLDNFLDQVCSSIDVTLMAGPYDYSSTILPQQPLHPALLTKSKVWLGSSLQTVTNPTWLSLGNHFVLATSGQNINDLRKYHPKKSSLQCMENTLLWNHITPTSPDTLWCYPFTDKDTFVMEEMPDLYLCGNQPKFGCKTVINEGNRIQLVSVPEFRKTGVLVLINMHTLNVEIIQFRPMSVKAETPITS

Cdc1-J12 = molecular target: T4, Cdc1-J12 (Schizosaccharomyces pombe, UniProt P87324 1-462, Ser-GlyValProHisSer-Ile)
T4 construct: Cdc1, S. pombe, with a pentapeptide inserted after residue 7; source: yeast two-hybrid fusion, in S. cerevisiae CTY10-5d
T4 sequence (looked up): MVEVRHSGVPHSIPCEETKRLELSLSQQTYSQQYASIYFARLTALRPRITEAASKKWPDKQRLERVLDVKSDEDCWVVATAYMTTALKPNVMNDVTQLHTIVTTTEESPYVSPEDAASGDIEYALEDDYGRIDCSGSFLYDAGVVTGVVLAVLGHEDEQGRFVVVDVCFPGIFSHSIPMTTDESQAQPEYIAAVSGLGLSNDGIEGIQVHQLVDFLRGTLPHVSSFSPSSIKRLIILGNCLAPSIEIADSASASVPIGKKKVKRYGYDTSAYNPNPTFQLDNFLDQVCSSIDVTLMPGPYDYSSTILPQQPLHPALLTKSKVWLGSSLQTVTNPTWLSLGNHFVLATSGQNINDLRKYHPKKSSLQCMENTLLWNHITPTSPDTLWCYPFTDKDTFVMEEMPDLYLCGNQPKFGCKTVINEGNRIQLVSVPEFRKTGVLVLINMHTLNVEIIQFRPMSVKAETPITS

B1: Pol3 (fission yeast DNA polymerase delta catalytic subunit) (natural protein, Schizosaccharomyces pombe, UniProt P30316 1-1086, looked up)
chain: MTDRSSNEGVVLNKENYPFPRRNGSIHGEITDVKRRRLSERNGYGDKKGSSSKEKTSSFEDELAEYASQLDQDEIKSSKDQQWQRPALPAINPEKDDIYFQQIDSEEFTEGSVPSIRLFGVTDNGNSILVHVVGFLPYFYVKAPVGFRPEMLERFTQDLDATCNGGVIDHCIIEMKENLYGFQGNEKSPFIKIFTTNPRILSRARNVFERGEFNFEELFPVGVGVTTFESNTQYLLRFMIDCDVVGMNWIHLPASKYQFRYQNRVSNCQIEAWINYKDLISLPAEGQWSKMAPLRIMSFDIECAGRKGVFPDPSIDPVIQIASIVTQYGDSTPFVRNVFCVDTCSQIVGTQVYEFQNQAEMLSSWSKFVRDVDPDVLIGYNICNFDIPYLLDRAKSLRIHNFPLLGRIHNFFSVAKETTFSSKAYGTRESKTTSIPGRLQLDMLQVMQRDFKLRSYSLNAVCSQFLGEQKEDVHYSIITDLQNGTADSRRRLAIYCLKDAYLPQRLMDKLMCFVNYTEMARVTGVPFNFLLARGQQIKVISQLFRKALQHDLVVPNIRVNGTDEQYEGATVIEPIKGYYDTPIATLDFSSLYPSIMQAHNLCYTTLLDSNTAELLKLKQDVDYSVTPNGDYFVKPHVRKGLLPIILADLLNARKKAKADLKKETDPFKKAVLDGRQLALKVSANSVYGFTGATNGRLPCLAISSSVTSYGRQMIEKTKDVVEKRYRIENGYSHDAVVIYGDTDSVMVKFGVKTLPEAMKLGEEAANYVSDQFPNPIKLEFEKVYFPYLLISKKRYAGLFWTRTDTYDKMDSKGIETVRRDNCPLVSYVIDTALRKMLIDQDVEGAQLFTKKVISDLLQNKIDMSQLVITKALSKTDYAAKMAHVELAERMRKRDAGSAPAIGDRVAYVIIKGAQGDQFYMRSEDPIYVLENNIPIDAKYYLENQLSKPLLRIFEPILGEKASSLLHGDHTRTISMAAPSVGGIMKFAVKVETCLGCKAPIKKGKTALCENCLNRSAELYQRQVAQVNDLEVRFARLWTQCQRCQGSMHQDVICTSRDCPIFYMRIAEHKKLQQSVDLLKRFDEMSW
notes: DNA polymerase delta catalytic subunit Pol3, S. pombe; prey plasmid named pACT-Pol3 in the results and pGAD2F-Pol3 in the methods; also called Gal4-Pol3; pACT-Pol3; source: yeast two-hybrid fusion, in S. cerevisiae CTY10-5d
two-hybrid beta-galactosidase activity, % of wild-type Cdc1 (Cdc1-J10): < 1% | two-hybrid beta-galactosidase activity, % of wild-type Cdc1 (Cdc1-E9): 24% | two-hybrid beta-galactosidase activity, % of wild-type Cdc1 (Cdc1-A1): 39% | two-hybrid beta-galactosidase activity, % of wild-type Cdc1 (Cdc1-J12): < 1%
